B1: CAL1-HA (in S2 cells) [Drosophila melanogaster] / GFP-LacI-CENP-C (in S2 cells) [Drosophila melanogaster] (parent complex)
chain 1: MANAVVDEETLEAMVYERSKAWSSKMADFASLEDGMEIDVAEFDNLFHGEDEDPDLDDVAKEAVEDNVPDEAKLEMGHINATSVTELTLILCANEDNEAKAEIEEILNQTVPVVEEHKRKWREAGLDRILDTFDEKQIEHHVGRWMRRHNSVYLEASPPKYLPPHHNSISDESDESMHSIDTARYIQQSRRRNAHMTNKNMTTIKMYRKHSHKRDELRAKYAYGDEQEHRHHMQAVLLRRRERERQLAYLASTPMQCVYSSGHHMRRKNLRKRRINSWMFDSASSSEEDTSFGGCDCHSCRRHYALSRSVYQSCPYGRGQREYHHRQMASRTMHTMRRQHTFDMEMDLRPRLPENECSCCNSDRLCSNVIHIANSSTEEWVVENRSNHLTQETQEKTRKQKHQPMDARKVSHQPVCSKGHEQKPLSSKATSVSKLVLSKEKYMQMFDSESSDEDNALAKKGLLCCSDKKKGMTFPTPNAAGKITHPTSSAKKAIRKEARPNGLAQIQEEGPTATNSPIESTYLPVAHMKSVSIDGSSGTSATFESPAKKAPKRGIRETSPLNGNELQQLISTIPIADEKASSLMEKVDNCIGRESFDDRNKDFMHMENSSTKTAVEKSTKQKRVSGKKSEIPKSIITNNEILEKNSTETLSEKQVAAKAKKQSVRKTGATGKPSTSRLKKSEKTKTTSSVTSTSKLEQVREEESDVSSEVLAKPKPQCSTTASILKQGGDGASNSEDDLQIALAMSKATYKEEQQKRKKTKREPSNKQPQSPAEKSMTVFNNQSVACNSTALANDTACYRVLPKRRGVKRAAAVSTTEEKTATNSSSSPTSSLEEMGSPTGGDPDCTVVTSTTGCEPPASERQEIPATIKITKRGILLHSPSAPEGASFTLTEQGLGKIIGERWARKYLKYHIGSRSFDSRHSVYYQPTPQLAAALSAPQDAQNIGNISGSSASDDDIFEQINRYGTVYSILENNSGDK
chain 2: MSKPQNNDTLELDDILSQPVKDKERFAAFMMRKLAENKPAQNDNLFGNFKLDFDLDFEVPLIKKSQAKPKSKLPEVQPLGELVSKNSAATEKVNEPPVDQAPNENVPPRRSPTLSPNNRRSMRRSGNVPGSDKLRRHAIRRRSRSCGRQLLPEFEETVNLTRSISSPVNFLPEISSTPCTEKQKEEVAKNTTRVETDKPAEKPMELSQEPEPENPLQTKVTSPARNPILAAEIEQICKERQSSFHKNVLQLDYSGRAPYSRPPTPSSPSVAGLRRTYTMEKGPAPGQLLLSPSHRYDTPSKMPVVKAKRFNQELMVPDTPERQSHDPAWQSEPQPEFVVPETQPQDLGELVQTLSRSAISPIVVINTSNSNRSVRRDAVAMKSVPTSPVTALSSPPIAPSPRRSAAASPQKSIAQLPRVEENMDAIMTDDESDEHPSTVPLNLAPSGGNTTRQRRLRSSNRARATIESQESSMRLLNLHKSVNAKKSKPRKTAIPLNKAPSAPINGEQFARELTRMSNYEILDLRKRNSLNEIYPLNGHRNHRSEKLILEEEIQRELLRRNLMDEAEGLPKQQSSDDSNEDYIPVPPKTQSLRTKSNDRSQGRGRPRSTRRDLPMTTELVNYLGLSQTLETRRKSSKDGKRCLYTKGSSDHEDNDSLSPVKLPRLSKSIQIVPPPPVSLRYSQSLQNLPCSGKFDFDNVVMAAPPDFHDSVNSDAIEIAPPPPEYVVNTRGRSTSGRKSNKNDLVLPPPGYEGGQEEEHDERPSQPRCTAKELQQSTQNGRRAMENELVPPPIEYVEEENRNNEQSRRSTKNGNLVDRNTHNAVEYCEPPEPPEYDDSDHGQASILRRSGKKLQHSKQSVQKSNKEQIIAPSYENNEDYDSDEEPIYNEEYGKEESQNKNVTRRKSDKDEMASHTLECIEGPDPNWNSSCNKQNRNHQNASKSKENDKLANRSSKSQKLSNPRQNAVGTEKSVALSNRGEECTEKSSDVMESLRVNTPTPPIDQNSDDVPSRNPSPSRTLLSDDVPSTSRAALEFLQRSQNMSKSRPPDESSADVVFKKPLAPAPRAKSKKGKSEVDKLKLAKMPVEAEELNTTGIRRSKRGQVPLQMSWCHTMDPSKFNFMSGFIEPRSKNSKTKKGNLSKAKKASATKPKPTVEKNLPDNRGPLCSSTPRISEKLPGAIPHSESLGLSTLTWEETEVQAEAEKVPKKRGRPKKAVGGVQTDTEAEPEPEPEPMISSVAPLTSDQEEPDVPDEQAPYTEAALGPVVFSTPLRDEQEEASTKLMQWLRGVGDAPPSASMSDENASVSSANELIFCQVDGIDYAFYNTKEKAMLGYMRFKPYQKRSMKQAKVHPLKLLVQFGEFNVETLAVGEEKEVHSVLRVGDMIEIDRGTRYSIQNAIDKVSVLMCIRS
B2: CAL1-V5 (in U2OS cells) [Drosophila melanogaster] / CENP-A-GFP-LacI (in U2OS cells) [Drosophila melanogaster] (parent complex)
chain 1: B1 chain 1
chain 2: MPRHSRAKRAPRPSANNSKSPNDDDTAFRSPEPEDGTDYGLEFTTSQLTLQDNNRRSSTLRRDAGRRQPAARDSSTSGEEEDQENRYPTTRSPQTRRMTVQQESKTRAAGPVAAQNQTRRRKAANPMSRAKRMDREIRRLQHHPGTLIPKLPFSRLVREFIVKYSDDEPLRVTEGALLAMQESCEMYLTQRLADSYMLTKHRNRVTLEVRDMALMAYICDRGRQF
B3: His-CAL1(1-160) [Drosophila melanogaster] / CENP-A(101-225)-H4 [Drosophila melanogaster] (parent complex)
chain 1: MANAVVDEETLEAMVYERSKAWSSKMADFASLEDGMEIDVAEFDNLFHGEDEDPDLDDVAKEAVEDNVPDEAKLEMGHINATSVTELTLILCANEDNEAKAEIEEILNQTVPVVEEHKRKWREAGLDRILDTFDEKQIEHHVGRWMRRHNSVYLEASPPK
chain 2: QQESKTRAAGPVAAQNQTRRRKAANPMSRAKRMDREIRRLQHHPGTLIPKLPFSRLVREFIVKYSDDEPLRVTEGALLAMQESCEMYLTQRLADSYMLTKHRNRVTLEVRDMALMAYICDRGRQF
chain 3: not shown

Variants of: B1
Assay: LacO/LacI tethering assay in U2OS cells (fluorescence intensity of CAL1-V5 at the tethering site); parent: 2.1e+03; read off a plot

| Variant | response [a.u.] |
| --- | --- |
| chain 2 L1357E, chain 2 M1407E | ~490 |
| chain 2 F1324R | ~300 |

Variants of: B1
Assay: LacO/LacI tethering assay in Drosophila S2 cells (fluorescence intensity of CAL1-HA at the tethering site); parent: 650; read off a plot

| Variant | response [a.u.] |
| --- | --- |
| chain 2 L1357E, chain 2 M1407E | ~60 |
| chain 2 F1324R | ~35 |

Variants of: B1
Assay: LacO/LacI tethering assay in U2OS cells (fluorescence intensity of CAL1-V5 at the tethering site); parent: 2.1e+03; read off a plot
Remark: another data set of the same source

| Variant | response [a.u.] |
| --- | --- |
| chain 1 I900R, chain 1 K907A, chain 1 Y908A | ~300 |

Variants of: B1
Assay: LacO/LacI tethering assay in Drosophila S2 cells (fluorescence intensity of CAL1-HA at the tethering site); parent: 650; read off a plot
Remark: another data set of the same source

| Variant | response [a.u.] |
| --- | --- |
| chain 1 I900R, chain 1 K907A, chain 1 Y908A | ~12 |

Variants of: B2
Assay: LacO/LacI tethering assay in U2OS cells (fluorescence intensity of CAL1-V5 at the tethering site); parent: 1.1e+03; read off a plot

| Variant | response [a.u.] |
| --- | --- |
| chain 1 W22A, chain 1 F29A | ~110 |
| chain 1 W22R, chain 1 F29R | ~20 |

Variants of: B3
Assay: Ni-NTA pull-down, band intensity quantification; parent: 4.1; read off a plot

| Variant | response |
| --- | --- |
| chain 2 S54Q, chain 2 M86A, chain 2 Q90G | ~0.85 ratio CENP-A101-225/H4:CAL11-160 |
| chain 2 S54Q | ~3.5 ratio CENP-A101-225/H4:CAL11-160 |
| chain 2 S54Q, chain 2 M86A | ~2.9 ratio CENP-A101-225/H4:CAL11-160 |
| chain 2 Q90G | ~2.8 ratio CENP-A101-225/H4:CAL11-160 |
| chain 2 M86A | ~3.6 ratio CENP-A101-225/H4:CAL11-160 |

Variants of: B3
Assay: Ni-NTA pull-down, band intensity quantification; parent: 3; read off a plot

| Variant | response |
| --- | --- |
| chain 1 W22R | ~0.7 ratio CENP-A101-225/H4:CAL11-160 |
| chain 1 F43R | ~1.8 ratio CENP-A101-225/H4:CAL11-160 |
| chain 1 W22R, chain 1 F29R | ~0.42 ratio CENP-A101-225/H4:CAL11-160 |
| chain 1 F29R | ~2.6 ratio CENP-A101-225/H4:CAL11-160 |
| chain 1 F29A | ~3.2 ratio CENP-A101-225/H4:CAL11-160 |
| chain 1 W22A, chain 1 F29A | ~0.38 ratio CENP-A101-225/H4:CAL11-160 |
